Results taken from article doi:10.1101/491043 (bioRxiv, 2018).
“And” between values parts separate entries of the source, which are not always exact repeats. Identical values can stand only once.

Target: the molecule itself

B1: M. tuberculosis ClpX (enzyme)
chain: not shown
  stoichiometry N: 6 and 2
